The labels stand for the following.
B1: XPA23 Fab, heavy chain M57Y (Fab, V domains shown)
VH: EVQLLESGGGLVQPGGSLRLSCAASGFTFSKYFMFWVRQAPGKGLEWVSVISPSGGYTRYADSVKGRFTISRDNSKNTLYLQMNSLRAEDTAVYYCARVGYGGNSDYWGQGTLVTVSS
VL: DIQMTQSPSSVSASVGDRLTIICRASQDINRWLAWYQQTPGNAPKLLIHSATSLQSGVPSRFSGSGSGTDFTLTINSLQPEDFATYYCQQADSFPLTFGGGTKVEIK
B2: XPA23 Fab, heavy chain N104E (Fab, V domains shown)
VH: B1 VH with Y57M, N104E
VL: B1 VL
B3: XPA23 Fab, heavy chain N104Y (Fab, V domains shown)
VH: B1 VH with Y57M, N104Y
VL: B1 VL
B4: XPA23 Fab, heavy chain S30Q (Fab, V domains shown)
VH: B1 VH with S30Q, Y57M
VL: B1 VL
B5: XPA23 Fab, heavy chain R59H (Fab, V domains shown)
VH: B1 VH with Y57M, R59H
VL: B1 VL
B6: XPA23 Fab, heavy chain P53N (Fab, V domains shown)
VH: B1 VH with P53N, Y57M
VL: B1 VL
B7: XPA23 Fab, heavy chain R59E (Fab, V domains shown)
VH: B1 VH with Y57M, R59E
VL: B1 VL
B8: XPA23 Fab, heavy chain P53S (Fab, V domains shown)
VH: B1 VH with P53S, Y57M
VL: B1 VL
B9: XPA23 Fab, heavy chain R59Q (Fab, V domains shown)
VH: B1 VH with Y57M, R59Q
VL: B1 VL
B10: XPA23 Fab, heavy chain P53K (Fab, V domains shown)
VH: B1 VH with P53K, Y57M
VL: B1 VL
B11: XPA23 Fab, heavy chain N104F (Fab, V domains shown)
VH: B1 VH with Y57M, N104F
VL: B1 VL
B12: XPA23 Fab, heavy chain S52D (Fab, V domains shown)
VH: B1 VH with S52D, Y57M
VL: B1 VL
B13: XPA23 Fab, heavy chain P53E (Fab, V domains shown)
VH: B1 VH with P53E, Y57M
VL: B1 VL
B14: XPA23 Fab, heavy chain P53F (Fab, V domains shown)
VH: B1 VH with P53F, Y57M
VL: B1 VL
B15: XPA23 Fab, heavy chain R59N (Fab, V domains shown)
VH: B1 VH with Y57M, R59N
VL: B1 VL
B16: XPA23 Fab, heavy chain N104S (Fab, V domains shown)
VH: B1 VH with Y57M, N104S
VL: B1 VL
B17: XPA23 Fab, heavy chain S30K (Fab, V domains shown)
VH: B1 VH with S30K, Y57M
VL: B1 VL
B18: XPA23 Fab, heavy chain R59W (Fab, V domains shown)
VH: B1 VH with Y57M, R59W
VL: B1 VL
B19: XPA23 Fab, heavy chain S30F (Fab, V domains shown)
VH: B1 VH with S30F, Y57M
VL: B1 VL
B20: XPA23 Fab, heavy chain P53Y (Fab, V domains shown)
VH: B1 VH with P53Y, Y57M
VL: B1 VL
B21: XPA23 Fab, heavy chain S30H (Fab, V domains shown)
VH: B1 VH with S30H, Y57M
VL: B1 VL
B22: XPA23 Fab, heavy chain S30R (Fab, V domains shown)
VH: B1 VH with S30R, Y57M
VL: B1 VL
B23: XPA23 Fab, heavy chain S30E (Fab, V domains shown)
VH: B1 VH with S30E, Y57M
VL: B1 VL
B24: XPA23 Fab, heavy chain P53H (Fab, V domains shown)
VH: B1 VH with P53H, Y57M
VL: B1 VL
B25: XPA23 Fab, heavy chain N104R (Fab, V domains shown)
VH: B1 VH with Y57M, N104R
VL: B1 VL
B26: XPA23 Fab, heavy chain N104H (Fab, V domains shown)
VH: B1 VH with Y57M, N104H
VL: B1 VL
B27: XPA23 Fab, heavy chain S30W (Fab, V domains shown)
VH: B1 VH with S30W, Y57M
VL: B1 VL
B28: XPA23 Fab, heavy chain P53Q (Fab, V domains shown)
VH: B1 VH with P53Q, Y57M
VL: B1 VL
B29: XPA23 Fab, heavy chain R59D (Fab, V domains shown)
VH: B1 VH with Y57M, R59D
VL: B1 VL
B30: XPA23 Fab, heavy chain S30Y (Fab, V domains shown)
VH: B1 VH with S30Y, Y57M
VL: B1 VL
B31: XPA23 Fab, heavy chain N104Q (Fab, V domains shown)
VH: B1 VH with Y57M, N104Q
VL: B1 VL
B32: XPA23 Fab, heavy chain R59F (Fab, V domains shown)
VH: B1 VH with Y57M, R59F
VL: B1 VL
B33: XPA23 Fab, heavy chain S30N (Fab, V domains shown)
VH: B1 VH with S30N, Y57M
VL: B1 VL
B34: XPA23 Fab, heavy chain R59S (Fab, V domains shown)
VH: B1 VH with Y57M, R59S
VL: B1 VL
B35: XPA23 Fab, heavy chain N104W (Fab, V domains shown)
VH: B1 VH with Y57M, N104W
VL: B1 VL
B36: XPA23 Fab, heavy chain R59K (Fab, V domains shown)
VH: B1 VH with Y57M, R59K
VL: B1 VL
B37: XPA23 Fab, heavy chain N104K (Fab, V domains shown)
VH: B1 VH with Y57M, N104K
VL: B1 VL
B38: XPA23 Fab, heavy chain S30D (Fab, V domains shown)
VH: B1 VH with S30D, Y57M
VL: B1 VL
B39: XPA23 Fab, heavy chain R59Y (Fab, V domains shown)
VH: B1 VH with Y57M, R59Y
VL: B1 VL
B40: XPA23 Fab, heavy chain N104D (Fab, V domains shown)
VH: B1 VH with Y57M, N104D
VL: B1 VL
B41: XPA23 Fab, heavy chain S52E (Fab, V domains shown)
VH: B1 VH with S52E, Y57M
VL: B1 VL
B42: XPA23 Fab, heavy chain P53D (Fab, V domains shown)
VH: B1 VH with P53D, Y57M
VL: B1 VL
B43: XPA23 Fab, heavy chain P53W (Fab, V domains shown)
VH: B1 VH with P53W, Y57M
VL: B1 VL

Substitutions are numbered along the chain they refer to. Names may count otherwise.

The target of the experiment is T1, IL-1beta (UniProt P01584 117-269).
T1 construct: also called IL-1β
The experiment can be described thus: Biacore.
B1: the “fold difference in affinity vs parental” value amounted to 0.86 fold.
Regarding B2, the binding result was “no binding”.
Consider B3, for which the binding result was “no binding”.
On the same count and under the same terms, with B4 the entry was “no binding”; with B5, “no binding”.
With B6, the “fold difference in affinity vs parental” value came out at 0.06 fold.
Take B7: the binding result is given as “no binding”.
As for B8, the “fold difference in affinity vs parental” value worked out at 0.03 fold.
As to B9, the “fold difference in affinity vs parental” value was found to be 0.86 fold.
For the molecule B10, the “fold difference in affinity vs parental” value was 0.04 fold.
On to B11, for which the binding result is given as “no binding”.
Regarding B12, the binding result is reported as “no binding”.
Turning to B13, the “fold difference in affinity vs parental” value turned out to be 0.03 fold.
As for B14, the “fold difference in affinity vs parental” value came out at 0.05 fold.
On to B15, for which the “fold difference in affinity vs parental” value was 0.86 fold.
Regarding B16, the “fold difference in affinity vs parental” value came out at 1.02 fold.
As to B17, the binding result is on record as “no binding”.
Take B18: the “fold difference in affinity vs parental” value is 0.09 fold.
Regarding B19, the binding result is recorded as “no binding”.
As for B20, the “fold difference in affinity vs parental” value worked out at 0.03 fold.
With B21, the binding result is reported as “no binding”.
On to B22, for which the “fold difference in affinity vs parental” value came out at 0.1 fold.
As to B23, the binding result is listed as “no binding”.
B24: the binding result is “no binding”.
Same read-out and setting: then B25, with “no binding”.
B26: the “fold difference in affinity vs parental” value came out at 0.07 fold.
With B27, the “fold difference in affinity vs parental” value is 0.77 fold.
With B28, the “fold difference in affinity vs parental” value came to 0.03 fold.
For the molecule B29, the binding result is given as “no binding”.
For B30, the binding result is reported as “no binding”.
Regarding B31, the “fold difference in affinity vs parental” value is 0.03 fold.
Take B32: the “fold difference in affinity vs parental” value came to 0.92 fold.
As for B33, the “fold difference in affinity vs parental” value stood at 0.15 fold.
Consider B34, for which the “fold difference in affinity vs parental” value turned out to be 0.13 fold.
B35: the binding result was “no binding”.
B36: the “fold difference in affinity vs parental” value amounted to 0.94 fold.
Consider B37, for which the binding result is “no binding”.
On the same count and under the same terms, with B38 the entry was “no binding”; with B39, “no binding”; with B40, “no binding”.
Consider B41, for which the binding result is reported as “no binding”.
As to B42, the binding result is “no binding”.
Consider B43, for which the “fold difference in affinity vs parental” value is 0.05 fold.

(Values after US20110118131A1 (published 2011).)
